Measurements as given in the domain aggregation screens of Martell et al. (2025).

Experiment: soluble fraction after stress (log2 fold change); higher = more stays soluble; pooled small domains, quantitative proteomics
Settings: stress: pH 4
Method in brief: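 Small protein domains from pooled custom libraries were exposed to pH 4, then quantified with high-throughput quantitative proteomics. The fold change in how much of each domain remains soluble is read as aggregation propensity. It is given as log2, with higher values meaning more stayed soluble.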

HMGTGVEQGKQYRTLKRDFDGASGIKVNGDFYRLRTSDTGMTELPAGTEVTFERFDGTTAVVHT
soluble fraction (log2): 0.196

HMGTHPGIDSGIISDILALKKELPTRSAAKIITMLTLAGKMEENSIHVKTVNRILYQYGYTRDTLS
soluble fraction (log2): -0.222

HMGTITKRTNPSGAVVWRAQIRINKADMPTYSESKTFSKKSLATEWLKRREAEIEANPDLIL
soluble fraction (log2): ≥ 0.43

HMGTKDVNAAPSAVGRTYDEAIEILNGYKAGYLEEYSDTVPKGTVISQSVQDGQVVIVVSLGPKPS
soluble fraction (log2): -0.18

HMGTKVGAPLPGTITEVKVKVGDTVKAGDAVIILEAMKMQNNIEAEVSGTVSSVLVKEGDTVMEGDALITI
soluble fraction (log2): -1.18

HMGTLNLSQAYREWGMAEIEANRDYYGPVRFDDIAFQMSPAGQQLQARFVASYADRLHDAIEGEL
soluble fraction (log2): -1.68

HMGTLRPKGTVVFANLPIAADAKEGDMYNISDQFTTTASFKEGAGNVIPAGSNVYRTDDGFWDVL
soluble fraction (log2): 0.193

HMGTPEQSAQFEQVLEELKNVPGPVMKAMQRAQDIYGYLPIEIQSRIGQAFGVSLEEVYGIATFYSQFNL
soluble fraction (log2): -2.6

HMGTQKVQVVNGPINVRSGPGPTFEKIGMVEDQAVYQVVSKKDDWFQISLPGNKTAWVAGWLVKEIK
soluble fraction (log2): -0.0241

HMGTRHPLPYAFAKAHTVLLEDDGDRLLLHAAENSGPSALGEILRLYDVDALERETASTLANRIAVAYAG
soluble fraction (log2): 0.163

HMGTSGLTIPRFVSLASGTVHMRAGPGVRYPITWIYKRLGTPLMVMAEHEFWRKVRDAEGTEGWMHRSLLS
soluble fraction (log2): -0.00785

HMGTSIMIIIVKPETKKERVNDLIHWIESQNLRTHLSTGDYSTIIGVIGDTSKLDSELIRGLDIVENVKRV
soluble fraction (log2): -1.24

HMGTSMDPPVIIVSDGKLIQKGLEVSGLKKQWLYDLIDRKHMKISDIFLLTADKTGKYNLIKRS
soluble fraction (log2): -0.134

HMGTSQSAVKAILAQLISDENKQKPYSDEALSRLLQQQGIDIARRTVAKYREALNIPPAHQRK
soluble fraction (log2): 0.365

HMGTSRVQSILFDQSQWTINRAVHWLNTHHFISTKIDKTDKYLRFRQFDPNPDSHHATKRTSQGITFILE
soluble fraction (log2): ≥ 0.43

HMGTTIAMSKLKQVLRWKEEGYSNRKIAQLVGLNKETVNNYISRANADSLSQKELLQLDDFVLDIRLRG
soluble fraction (log2): -0.138

HMGTTTGKVNATGVNFRTGPSTSYSSMGKLGIDTAVTILGKSGDWYQVKVNSTGKTGYVFAKYITITSVV
soluble fraction (log2): -0.434

HMGTVIGMGRITAGGVNFRETEGGGVIEKLERDTLVEVLTVPSVIDTTHWYQVRYNNRTGYVQAPFVQLLG
soluble fraction (log2): 0.176

HMGTVKWFNATKGFGFIVPSDGGKDVFVHITAVQKAGLQGLNEGQKVSYEVAMERGKAAATNLR
soluble fraction (log2): -0.259

HMGTVRFYNKERGFGFVVSDDGESVFLPAKALPDGVSDLSPGTRVDYGAALGKKGSQ
soluble fraction (log2): -0.203

HMGVAAPMPGTITDVRVKVGDRVQPRTVVMMLEAMKMENEIFAGRAGVVSQVAVEKGASVNTGDLLISIDP
soluble fraction (log2): 0.325

HMGVAASEVHREKKESSLQWRQSYNVATDQRRQGKTYKEITEFLNGAELKNSKGGTWSISGVRKMLM
soluble fraction (log2): ≥ 0.43

HMGVARGQAQVTTRQHVVQPGETLYQISKQYGVTVAEILRYNADIEDNTVKVGQTLQIPTPLP
soluble fraction (log2): -0.206

HMGVDMAPESIVGKKGVAATELRPAGKVEIHGQVYDAVSVGMFIKRGTGVKVVRYEAAQIYVEPE
soluble fraction (log2): -0.112

HMGVEALTPRQREVLALMAQGRSNGWIAAELGLSEKAIVQHTSNIYDMLGLAVDADDHRRVLAVIHYLT
soluble fraction (log2): -0.943

HMGVENDGYVLPRELKKGDTVLIADLGKEATVLSPVDRNGNVEVLAGAAKTRVKLKNLRLIE
soluble fraction (log2): 0.179

HMGVEVPRGDGSTVVRVRAGSSLADFAERIGADPAALITVLFRMGEMATVNQSLDEDTFKLLGAELGYDVQ
soluble fraction (log2): -0.721

HMGVGIAEAMKHVADEDYGDLSSEFQRIFSAVDGGSTLGDAVRAQMRATSSAGLRRTLSVLAMSVE
soluble fraction (log2): -0.314

HMGVGTTDERLAVLNQIASRQTEALEKLGPNNPLVGLGQIRNTLSKMLEISGYPDSNQFFKQVPLDYEPPP
soluble fraction (log2): -0.0341

HMGVIDTLSGPQKAAAILVAIGRPSASRLLKHFNAEDLRKLAGHARTLEPISPLDFEHLVKQFEDSFAEG
soluble fraction (log2): -0.745

HMGVIGADIRALRVSRGWTLSDLAEALDRSVGWLSQVERDVSEPALADIRRIAGIFDLPVSFFFSD
soluble fraction (log2): -1.64

HMGVLDFSAQLLKHLEMNGGQTPLGDKSPAEEIYAVFGVSKKVFKKAVGDLYRKRLIEISSNGIRMTS
soluble fraction (log2): 0.336

HMGVLGVDALAAAAEVSVDTVRYYQHLGLLEPPRREGRRAVYGPSHLARMGEIRRLAAAGFTLDQIRQLAE
soluble fraction (log2): -1.62

HMGVPTEQQSLIGKSGIAATDLRPSGKVEIDGKRYDAVSNYAGFIAKGTPISVVRYETGQIYVE
soluble fraction (log2): 0.0721

HMGYDDVIVINGKNETYGFPTKVEDDPVLSLVIKGDRSIDYAEERRLFYVAMTRTKNRVFFVAP
soluble fraction (log2): -0.803

HMGYGEQEAEATKYMSLHAIMSADETLSKMYTPENQHKLMTHVMEQNGIKNVKDYLTPPSELP
soluble fraction (log2): -0.443

HMGYPYDTVTTAKVNLRAKRSTSSDILKKIPEGATVTVKGVTGTFASVDYNGTSGYVKVDYLV
soluble fraction (log2): -0.196

HMGYSSKISELLTKYNMNASELAQKVGVPPTTIYSIIKRDSKKADIEVLIKIAKLFNVPVEYF
soluble fraction (log2): 0.186

HMGYTPGVVIQKSAILEEINQPDLALGMMLEAVKKDSQNLDILNRLVTLLIDQKKNEDAEIYNKKIIT
soluble fraction (log2): 0.187

HMHAGMKSWTIQYEKSPIYGSFLMYKDGNIYIQKEDNVVVHFPLDRFSQNDQAILKSRIEKIDQINKSS
soluble fraction (log2): -0.0137

HMHAPKIIVLTINPDKIRDVIGPGGKMIKSIVAATGVKMDVEDDGKIHISSSDQKAADEAIRMINEITAEA
soluble fraction (log2): 0.223

HMHAPLEVGSVVRIEGQKALGTILSISDREAIVALGALKTTIPLKRLHGVSPAEAQRHLRKTTPAQAVR
soluble fraction (log2): 0.0546

HMHAQDTLMTRAGETRTVKILEIGLEEIKYRIWGLDDSPVIVIDKIDVKQIVFSNGEKMTIVQ
soluble fraction (log2): -1.86

HMHDLTERQREILQTLASGKMALREILSILSQPPSLRTLRDELYHLKRIGLVDTMGYGRGATWFLTQ
soluble fraction (log2): -0.13

HMHDNPLSAQEQRVLDLIAAGKTSKEIASQLFLSDGTVRNYTTSIFNKLNANNRVEAINIAQENGW
soluble fraction (log2): 0.123

HMHDPRLPLPGTLLAREFQGRDIVVKVLDNGFEFDGRRYKSLSAIAQEVTGSKWNGFLFFGI
soluble fraction (log2): -0.0393

HMHDWDITTAAKPEKIFELFSDIPVLETGLKHGTVTLLIDHEPYEVTTFRVDGNYTDGRHPDSVAFT
soluble fraction (log2): -0.366

HMHGESIPIPNILHKRYADAEQIVNNLRLEIEVTDTGYVRSLPPGAILEQTPGPGERVKSGHIIYVTINAA
soluble fraction (log2): -0.0135

HMHGETLAAKRREEIKVRIQNIYDQSEQIFGYRKITATLRSQGVVVSEKLVSQLMRELEISSVS
soluble fraction (log2): -0.896

HMHGSSVEIPNIYGLPASEAVQLLDKADLRYEVIDSVYTTEVPKGAVYDLSPKAGSRVKAGRIIFLTLNA
soluble fraction (log2): -0.075

HMHGSTAVVPQIKNMPYSEASVRLGANGLAIEINDSVYDRDMPPGTVIESWPKAGAVVKQGRQVYVTVTA
soluble fraction (log2): 0.218

HMHHGALKQALLDETARILAEEGESALSLRRLASNLGVSRTAPYNHFDNKDALLSAVAEEGFRR
soluble fraction (log2): -0.0708

HMHIELNDTQKRILNFLSDDPNLSAVRLAEQLGISSRNVEKNIKKLKEYGILIRHGSPKNGYWEIVV
soluble fraction (log2): -0.2

HMHITSFTIKQADQIVGTTPVREQAVGAAKARAQQTGTPVSVIAYLDTGEEREVIIHPDGTN
soluble fraction (log2): -0.328

HMHKLTSRQEEILQFIKDYLSEIGYPPTRSEIAQKMGFRSTNAAEEHLRALARKGAIEILPGPSRGLRLP
soluble fraction (log2): -0.393

HMHKTEIKIPSREDILAVLRQAQAPLTREQVFEHLKLTEDQIPIIEKRLNAMERDGQLMPNRKGMLLLSTK
soluble fraction (log2): 0.00265

HMHKYEYESLNHVNVGSNLKYISTHFGQPKLIKKSKYHENLNFAYYLEKKFILTLILEGDRVNAYTITG
soluble fraction (log2): -0.236

HMHLEKGEVVVPDLKGLTMRQVGELLGKLNLRYSFSGTGLAVKQFPESGQIVNQGDIIEVIF
soluble fraction (log2): 0.174

HMHLLPAREQVAAYLRKAILRQEIREGTILNLADTARQMGVSVTPVREALQLLAAQGLVRLRPNKGAVVMG
soluble fraction (log2): 0.158

HMHLNVYRDEDEAMLAFKDHLIGTHQPIRVRVEKALPDGTMGHKIVDTTIGRIVFNHNIPQD
soluble fraction (log2): 0.0727

HMHLTEAPLIKITYFEADQKKSGGQYITIINHLKKINEYENLLVLENGVKINIDDIYELESV
soluble fraction (log2): -0.804

HMHMNFGEILQTKRKEKGFTQEELAHQLLVSSKTISNWETNKTTPDIDNVIRISQLFDISLNQLLLE
soluble fraction (log2): -0.424

HMHMSKKLADSIISLRRKHGFSQEQLAEKIGVTRQAISNWERGTATPDVETLNLIAKLFDMDLLAIINGE
soluble fraction (log2): -0.514

HMHNLYAPTQKEVDHARRVVEAAEAAAREGLGVVSLNGKMVDGPVIDRARLVLSRAELSGIRE
soluble fraction (log2): 0.274

HMHNNTITLNKKTYVYTASGKKMSKYLGYTYINKGTTLNYYGTKNIKGKTFYYIGDHAYVNAANVGKVTN
soluble fraction (log2): ≥ 0.43

HMHNQIGDKIRELRTRSNLTQADLGKLVGVSMQAVSKWERGGTPDIDVLLSVAKYFNISLDEMVGRT
soluble fraction (log2): -1.63

HMHPEITLHPVRANIYSISVKNATSMEIYSVSGQLVGIRELKEGTNTLDLTGYINGVYIVNLQNKAFKLVK
soluble fraction (log2): -0.465

HMHPELSDSQRTLIALMASGLKDEAIAVEMGVGARTVRRKVQELYELLGVRTRFQAGVAANQRGW
soluble fraction (log2): -0.606

HMHPKDVPTRRELEVLQAVSEGLSTAEIGLRLDITENTVETFRRRLIQKFDAKNAIDLVVKAMAQGWIKV
soluble fraction (log2): -0.255

HMHQGTIEVGSIVHIEGQKALGTILSLTQREAIVGLGALKTTIPLKRLHLATEAEARRHKKSVTPQEAV
soluble fraction (log2): 0.284

HMHQIFAETVFEDIAFGPRNKGFNEEEVAKQVREAMAFVGLDYDTYAQRSPFQLSGGQMRRVAIAGVVA
soluble fraction (log2): -0.874

HMHQKYIITGTRDTYVVSQGETLRTIAEHVYGSRGYARYIIEHNHITHPDDIPVGLTIRLPELELNPDYR
soluble fraction (log2): -0.209

HMHRAKRTKAQTQSSLESIEGIGPKTRKQLLVHFGGLAEVKAASVSELQKVKGISLDKAQKIYDFFHGS
soluble fraction (log2): 0.119

HMHRNLSFEEEKEFLSAYTKQAEAGQIVDLNEMKAAYIEKVGHSIGGSQIYRMLERHGWRKVM
soluble fraction (log2): -0.468

HMHSDSEIEKGYTDDGQKLSNVNGVYMTKSEMYNKGIVEKDPNTGEEVMGRNRVNPVTGELE
soluble fraction (log2): 0.204

HMHSDWITWWYLKDKRFDDDYSLWDRQPVHPEYFEVVKEFKAPPESNPGGLDEVKRILRTYIPDAFAP
soluble fraction (log2): 0.162
